According to PMC3594540 (Nature structural & molecular biology, 2013):

B2: human PLCβ3 (residues 10–1234) (enzyme)
chain: ALQLEPPTVVETLRRGSKFIKWDEETSSRNLVTLRVDPNGFFLYWTGPNMEVDTLDISSIRDTRTGRYARLPKDPKIREVLGFGGPDARLEEKLMTVVSGPDPVNTVFLNFMAVQDDTAKVWSEELFKLAMNILAQNASRNTFLRKAYTKLKLQVNQDGRIPVKNILKMFSADKKRVETALESCGLKFNRSESIRPDEFSLEIFERFLNKLCLRPDIDKILLEIGAKGKPYLTLEQLMDFINQKQRDPRLNEVLYPPLRPSQARLLIEKYEPNQQFLERDQMSMEGFSRYLGGEENGILPLEALDLSTDMTQPLSAYFINSSHNTYLTAGQLAGTSSVEMYRQALLWGCRCVELDVWKGRPPEEEPFITHGFTMTTEVPLRDVLEAIAETAFKTSPYPVILSFENHVDSAKQQAKMAEYCRSIFGDALLIEPLDKYPLAPGVPLPSPQDLMGRILVKNKKRHRPSAGGPDSAGRKRPLEQSNSALSESSAATEPSSPQLGSPSSDSCPGLSNGEEVGLEKPSLEPQKSLGDEGLNRGPYVLGPADREDEEEDEEEEEQTDPKKPTTDEGTASSEVNATEEMSTLVNYIEPVKFKSFEAARKRNKCFEMSSFVETKAMEQLTKSPMEFVEYNKQQLSRIYPKGTRVDSSNYMPQLFWNVGCQLVALNFQTLDVAMQLNAGVFEYNGRSGYLLKPEFMRRPDKSFDPFTEVIVDGIVANALRVKVISGQFLSDRKVGIYVEVDMFGLPVDTRRKYRTRTSQGNSFNPVWDEEPFDFPKVVLPTLASLRIAAFEEGGKFVGHRILPVSAIRSGYHYVCLRNEANQPLCLPALLIYTEASDYIPDDHQDYAEALINPIKHVSLMDQRARQLAALIGESEAQAGQETCQDTQSQQLGSQPSSNPTPSPLDASPRRPPGPTTSPASTSLSSPGQRDDLIASILSEVAPTPLDELRGHKALVKLRSRQERDLRELRKKHQRKAVTLTRRLLDGLAQAQAEGRCRLRPGALGGAADVEDTKEGEDEAKRYQEFQNRQVQSLLELREAQVDAEAQRRLEHLRQALQRLREVVLDANTTQFKRLKEMNEREKKELQKILDRKRHNSISEAKMRDKHKKEAELTEINRRHITESVNSIRRLEEAQKQRHDRLVAGQQQVLQQLAEEEPKLLAQLAQECQEQRARLPQEIRRSLLGEMPEGLGDGPLVACASNGHAPGSSGHLSGADSESQEENTQL

Experiments:
[1] = biological target: B2; assay: cell-based or functional assay
[2] = biological target: T1, murine Gαq (residues 7–359), biotinylated for bead binding (murine, UniProt P21279 7-359); assay: flow cytometry protein interaction assay
T1 sequence: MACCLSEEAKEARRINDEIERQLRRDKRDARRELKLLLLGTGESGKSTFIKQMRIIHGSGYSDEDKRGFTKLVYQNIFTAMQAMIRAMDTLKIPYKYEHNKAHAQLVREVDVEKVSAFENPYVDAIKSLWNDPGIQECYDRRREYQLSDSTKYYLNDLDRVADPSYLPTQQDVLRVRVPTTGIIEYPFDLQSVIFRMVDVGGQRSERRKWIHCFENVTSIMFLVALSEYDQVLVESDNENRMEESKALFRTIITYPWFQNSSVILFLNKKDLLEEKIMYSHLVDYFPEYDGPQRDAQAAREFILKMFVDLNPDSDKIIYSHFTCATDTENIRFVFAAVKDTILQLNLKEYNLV

[3] = biological target: B2; assay: crystal structure

B1: Gαq-ΔN (domain or fragment)
chain: RRELKLLLLGTGESGKSTFIKQMRIIHGSGYSDEDKRGFTKLVYQNIFTAMQAMIRAMDTLKIPYKYEHNKAHAQLVREVDVEKVSAFENPYVDAIKSLWNDPGIQECYDRRREYQLSDSTKYYLNDLDRVADPSYLPTQQDVLRVRVPTTGIIEYPFDLQSVIFRMVDVGGQRSERRKWIHCFENVTSIMFLVALSEYDQVLVESDNENRMEESKALFRTIITYPWFQNSSVILFLNKKDLLEEKIMYSHLVDYFPEYDGPQRDAQAAREFILKMFVDLNPDSDKIIYSHFTCATDTENIRFVFAAVKDTILQLNLKEYNLV
modifications: biotinylated (b-Gαq, in the FCPIA)
EC50 of Gαq-stimulated PIP2 hydrolysis ([3H]-IP3 release from liposomes) [1]: 39 nM | Max specific activity of Gαq-stimulated PIP2 hydrolysis (liposomes) [1]: 1600 nmol IP3/min/nmol PLCβ3

B2
Ki [2]: 220 nM

B3: TEV-cleaved murine Gαq (residues 7–359) (natural protein)
chain: MACCLSEEAKEARRINDEIERQLRRDKRDARRELKLLLLGTGESGKSTFIKQMRIIHGSGYSDEDKRGFTKLVYQNIFTAMQAMIRAMDTLKIPYKYEHNKAHAQLVREVDVEKVSAFENPYVDAIKSLWNDPGIQECYDRRREYQLSDSTKYYLNDLDRVADPSYLPTQQDVLRVRVPTTGIIEYPFDLQSVIFRMVDVGGQRSERRKWIHCFENVTSIMFLVALSEYDQVLVESDNENRMEESKALFRTIITYPWFQNSSVILFLNKKDLLEEKIMYSHLVDYFPEYDGPQRDAQAAREFILKMFVDLNPDSDKIIYSHFTCATDTENIRFVFAAVKDTILQLNLKEYNLV
modifications: at least a fraction of the purified Gαq was palmitoylated (Cys9 and Cys10)
binding result [3]: binds
